Several values for one entry are separate records, joined by “and”; a condition that tells them apart may be missing. Identical values can stand only once.
Assays:
native gel or EMSA = biological target: the molecule itself; assay: native gel or EMSA
[1] = biological target: the molecule itself; assay: SDS-PAGE of samples folded in detergent micelles

| Protein | stoichiometry N (native gel or EMSA) | stoichiometry N [1] |
| --- | --- | --- |
| ^35S-labelled OmpC (natural protein, ^35S-methionine label) MKVKVLSLLVPALLVAGAANAAEVYNKDGNKLDLYGKVDGLHYFSDNKDVDGDQTYMRLGFKGETQVTDQLTGYGQWEYQIQGNSAENENNSWTRVAFAGLKFQDVGSFDYGRNYGVVYDVTSWTDVLPEFGGDTYGSDNFMQQRGNGFATYRNTDFFGLVDGLNFAVQYQGKNGNPSGEGFTSGVTNNGRDALRQNGDGVGGSITYDYEGFGIGGAISSSKRTDAQNTAAYIGNGDRAETYTGGLKYDANNIYLAAQYTQTYNATRVGSLGWANKAQNFEAVAQYQFDFGLRPSLAYLQSKGKNLGRGYDDEDILKYVDVGATYYFNKNMSTYVDYKINLLDDNQFTRDAGINTDNIVALGLVYQF | 3 | – |
| ^35S-labelled OmpC(Y286A) (natural protein, ^35S-methionine label) MKVKVLSLLVPALLVAGAANAAEVYNKDGNKLDLYGKVDGLHYFSDNKDVDGDQTYMRLGFKGETQVTDQLTGYGQWEYQIQGNSAENENNSWTRVAFAGLKFQDVGSFDYGRNYGVVYDVTSWTDVLPEFGGDTYGSDNFMQQRGNGFATYRNTDFFGLVDGLNFAVQYQGKNGNPSGEGFTSGVTNNGRDALRQNGDGVGGSITYDYEGFGIGGAISSSKRTDAQNTAAYIGNGDRAETYTGGLKYDANNIYLAAQYTQTYNATRVGSLGWANKAQNFEAVAQAQFDFGLRPSLAYLQSKGKNLGRGYDDEDILKYVDVGATYYFNKNMSTYVDYKINLLDDNQFTRDAGINTDNIVALGLVYQF | 3 | – |
| FLAG-OmpC (natural protein) AEVYNKDGNKLDLYGKVDGLHYFSDNKDVDGDQTYMRLGFKGETQVTDQLTGYGQWEYQIQGNSAENENNSWTRVAFAGLKFQDVGSFDYGRNYGVVYDVTSWTDVLPEFGGDTYGSDNFMQQRGNGFATYRNTDFFGLVDGLNFAVQYQGKNGNPSGEGFTSGVTNNGRDALRQNGDGVGGSITYDYEGFGIGGAISSSKRTDAQNTAAYIGNGDRAETYTGGLKYDANNIYLAAQYTQTYNATRVGSLGWANKAQNFEAVAQYQFDFGLRPSLAYLQSKGKNLGRGYDDEDILKYVDVGATYYFNKNMSTYVDYKINLLDDNQFTRDAGINTDNIVALGLVYQF | 2 and 3 | – |
| OmpC-His6 (natural protein) AEVYNKDGNKLDLYGKVDGLHYFSDNKDVDGDQTYMRLGFKGETQVTDQLTGYGQWEYQIQGNSAENENNSWTRVAFAGLKFQDVGSFDYGRNYGVVYDVTSWTDVLPEFGGDTYGSDNFMQQRGNGFATYRNTDFFGLVDGLNFAVQYQGKNGNPSGEGFTSGVTNNGRDALRQNGDGVGGSITYDYEGFGIGGAISSSKRTDAQNTAAYIGNGDRAETYTGGLKYDANNIYLAAQYTQTYNATRVGSLGWANKAQNFEAVAQYQFDFGLRPSLAYLQSKGKNLGRGYDDEDILKYVDVGATYYFNKNMSTYVDYKINLLDDNQFTRDAGINTDNIVALGLVYQF | – | 3 |
| OmpF (natural protein) AEIYNKDGNKVDLYGKAVGLHYFSKGNGENSYGGNGDMTYARLGFKGETQINSDLTGYGQWEYNFQGNNSEGADAQTGNKTRLAFAGLKYADVGSFDYGRNYGVVYDALGYTDMLPEFGGDTAYSDDFFVGRVGGVATYRNSNFFGLVDGLNFAVQYLGKNERDTARRSNGDGVGGSISYEYEGFGIVGAYGAADRTNLQEAQPLGNGKKAEQWATGLKYDANNIYLAANYGETRNATPITNKFTNTSGFANKTQDVLLVAQYQFDFGLRPSIAYTKSKAKDVEGIGDVDLVNYFEVGATYYFNKNMSTYVDYIINQIDSDNKLGVGSDDTVAVGIVYQF | 3 and 2 | – |

Reference: publication doi:10.1101/2021.10.29.466387 (bioRxiv, 2021)
